How the values were obtained:
[1] = target: PGT145 (human IgG1), as the ligand of CD16; assay: flow cytometry on cells; details: read off a plot; for other: Binding (AUC): area under the PGT145 staining curve, parent: est. 12000; for response: parent: est. 540
[2] = target: soluble SIVmac239 Env SOSIP.664 trimer, wild type (SIVmac239); assay: cryo-EM 2-D class averages; SIVmac239 Env trimers affinity purified with PGT145, ~6 mg/ml diluted 3:1 into n-dodecyl-beta-D-maltoside, plunge frozen; ~62,000 particles

| Substance | other: Binding (AUC) [1] | response [1] [gMFI] | stoichiometry N [2] |
| --- | --- | --- | --- |
| SIVmac239 Env WT K179S | 46000 | 1500 | – |
| SIVmac239 Env WT K180S | 260000 | 6600 | – |
| SIVmac239 Env WT K181S | 11000 | 450 | – |
| SIVmac239 Env WT N171Q | 740 | 220 | – |
| SIVmac239 Env WT R177A | 1300 | 180 | – |
| soluble SIVmac239 Env SOSIP.664 trimer, wild type (complex) | – | – | 3 |

Source: publication PMC6606807
